# Laboratory results: patent US12366576B2, “Compositions, assays, and methods for direct modulation of fatty acid metabolism” (Dana-Farber Cancer Institute, Inc., priority 2016, dated 2025)
# Bridge positions count the residues as written; N and C are the ends. Square brackets hold non-standard residues; d marks the D form. Ends that are not written are not given here. S5 = C=CCCC[C@](C)(N)C(=O)O
# Target: T1, MCAD (Mus musculus, UniProt P45952)
# T1 construct: endogenous in cells; host or cells: wild-type mouse embryonic fibroblasts (lysate)
# T1 sequence (P45952 26-421): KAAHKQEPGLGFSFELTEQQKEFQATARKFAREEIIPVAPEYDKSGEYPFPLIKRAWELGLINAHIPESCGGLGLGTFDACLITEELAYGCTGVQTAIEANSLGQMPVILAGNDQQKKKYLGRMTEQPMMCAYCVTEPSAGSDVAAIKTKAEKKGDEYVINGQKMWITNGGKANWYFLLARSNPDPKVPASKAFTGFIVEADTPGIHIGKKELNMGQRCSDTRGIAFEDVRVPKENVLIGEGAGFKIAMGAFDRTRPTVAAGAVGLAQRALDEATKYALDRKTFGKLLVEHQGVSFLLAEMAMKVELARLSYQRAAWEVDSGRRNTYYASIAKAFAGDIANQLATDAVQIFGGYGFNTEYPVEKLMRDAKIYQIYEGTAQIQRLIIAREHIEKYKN
# Assay: Biotinylated SAHB pulldown from MEF lysates, MCAD Western analysis
# Format: binding
# Settings: wild-type MEF lysates
# Excerpt: To validate the MS result, the pulldowns were repeated and eluates run on a gel for anti-VLCAD Western blot analysis. […] All peptides faithfully recapitulated native BH3-binding propensities for endogenous MCL-1 protein (FIG. 8). The eluates were then probed for the other members of the acyl-CoA dehydrogenase family that manifest shorter fatty acid substrate specificities. MCL-1 SAHBD was able to pull down VLCAD, but not MCAD or SCAD (FIG. 9). Because the traditional MCL-1 staple location differs from that of the BIM, BID, and BAD SAHBs, it was important to confirm that the observed VLCAD binding specificity was due to BH3 sequence selectivity, not staple position. A BIM SAHB with the traditional MCL-1 staple (BIM SAHBF), and a MCL-1 stapled peptide with the traditional BIM staple (MCL-1 SAHBA), were generated. […]
# Wild-type MEFs were trypsinized, washed once with cold PBS, and lysed on ice with NP-40 lysis buffer (50 mM Tris, pH 7.4, 150 mM NaCl, 0.5% (v/v) NP-40, complete protease inhibitor pellet (Roche)) using 1 ml of lysis buffer for every 10 million cells lysed. Cellular debris was pelleted at 14,000 g for 10 min at 4° C., and the supernatant was quantified using the BCA Protein Assay Kit (Thermo Fisher Scientific). […]
substance,measurement,value
"MCL-1 SAHBD: hydrocarbon-stapled peptide mimicking the MCL-1 BH3 domain (Stabilized Alpha-Helix of BCL-2 Domain), SEQ ID NO:19 (RKALETLRRVGDGV[S5]RNH[S5]TAF; staple 15-19)",pull down of MCAD from cellular lysates,not
